Key:
[1] = target: NKp46 on NKL cells / NK cells (human, UniProt O76036 22-304); assay: cell-based or functional assay
N46W3 (NKp46 D1) = target: T1, N46W3 (NKp46 D1) (UniProt O76036 22-120, limits assumed); assay: binding kinetics, method not named
T1 construct: domain: D1
T1 sequence (O76036 22-120 limits assumed): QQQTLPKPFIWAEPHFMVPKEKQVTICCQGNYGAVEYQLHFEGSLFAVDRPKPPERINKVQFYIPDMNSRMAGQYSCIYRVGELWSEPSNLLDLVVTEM

Sequence of NKp46 on NKL cells / NK cells (O76036 22-304): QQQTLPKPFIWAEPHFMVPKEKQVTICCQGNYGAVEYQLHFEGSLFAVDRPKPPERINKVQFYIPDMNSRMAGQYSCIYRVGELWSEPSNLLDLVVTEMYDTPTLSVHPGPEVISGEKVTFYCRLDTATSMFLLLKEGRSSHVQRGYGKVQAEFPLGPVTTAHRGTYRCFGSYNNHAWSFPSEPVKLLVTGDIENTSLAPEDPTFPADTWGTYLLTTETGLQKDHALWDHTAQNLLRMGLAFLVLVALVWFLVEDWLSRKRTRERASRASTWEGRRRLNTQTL

B1: N46BB10.AFU (bispecific antibody, human IgG1, kappa)
heavy: QLQLQESGPGPVRPSETLSLTCTVSGDSIRSSSYYWGWIRQPPGKGLDWIGSIYYTGSTYYNPSLMSRVTISVDTSKNQFSLKLSSVTAADTAVYYCASPGYSSGWSIDYWGQGTLVTVSSASTKGPSVFPLAPSSKSTSGGTAALGCLVKDYFPEPVTVSWNSGALTSGVHTFPAVLQSSGLYSLSSVVTVPSSSLGTQTYICNVNHKPSNTKVDKKVEPKSCDKTHTCPPCPAPELLGGPSVFLFPPKPKDTLMISRTPEVTCVVVDVSHEDPEVKFNWYVDGVEVHNAKTKPREEQYNSTYRVVSVLTVLHQDWLNGKEYKCKVSNKALPAPIEKTISKAKGQPREPQVYTLPPSREEMTKNQVSLWCLVKGFYPSDIAVEWESNGQPENNYKTTPPVLDSDGSFFLYSKLTVDKSRWQQGNVFSCSVMHEALHNRFTQKSLSLSPGK
light: DIQLTQSPSFLSASVGDRVTITCRASQGISSYLAWYQQKPGKAPKLLIYVASTLQSGVPSRFSGSGSGTEFTLTISSLQPEDFATYYCQQLNSYPRMTFGGGTKVEIKRTVAAPSVFIFPPSDEQLKSGTASVVCLLNNFYPREAKVQWKVDNALQSGNSQESVTEQDSKDSTYSLSSTLTLSKADYEKHKVYACEVTHQGLSSPVTKSFNRGEC
chain: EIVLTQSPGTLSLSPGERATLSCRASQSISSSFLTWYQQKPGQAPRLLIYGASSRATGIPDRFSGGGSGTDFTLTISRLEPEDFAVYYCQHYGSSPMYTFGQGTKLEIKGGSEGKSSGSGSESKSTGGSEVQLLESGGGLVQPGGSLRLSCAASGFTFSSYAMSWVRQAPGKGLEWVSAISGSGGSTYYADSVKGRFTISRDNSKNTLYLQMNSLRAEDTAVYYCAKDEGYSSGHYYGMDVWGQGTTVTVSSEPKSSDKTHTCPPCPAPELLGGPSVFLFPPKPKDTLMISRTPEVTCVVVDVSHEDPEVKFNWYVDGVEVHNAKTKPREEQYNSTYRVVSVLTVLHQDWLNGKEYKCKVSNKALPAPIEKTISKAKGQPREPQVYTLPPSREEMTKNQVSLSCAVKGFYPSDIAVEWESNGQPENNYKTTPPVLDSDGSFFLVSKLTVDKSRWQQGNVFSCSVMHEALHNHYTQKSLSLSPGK
- EC50 of cytotoxicity (hypoxia study, PBMC on MM1R/GFP cells) [1]: 0.006 nM

B2: N46B105 (antibody, V domains shown)
VH: QLQLQESGPGPVRPSETLSLTCTVSGDSIRSSSYYWGWIRQPPGKGLDWIGSIYYTGSTYYNPSLMSRVTISVDTSKNQFSLKLSSVTAADTAVYYCASPGYSSGWSIDYWGQGTLVTVSS
VL: DIQLTQSPSFLSASVGDRVTITCRASQGISSYLAWYQQKPGKAPKLLIYVASTLQSGVPSRFSGSGSGTEFTLTISSLQPEDFATYYCQQLNSYPRMTFGGGTKVEIK
notes: also called VR000044289
- Kd (N46W3 (NKp46 D1)): 3.5 nM

From patent US20240182582A1 (Janssen / Centocor, published 2024)
